Data set [1] has as its target bacteriophage T4 major capsid protein gp23 (bacteriophage T4). In words: cryo-EM structure; purified emptied prolate heads of a gp13 amber mutant in 50 mM Tris pH 7.5, 1 mM MgCl2, 100 mM NaCl; fivefold symmetry, 10 Å; gp20 structure and a gp23 model fitted into the map.
Data set [2] addresses gp20 mutant in which the tunnel loop (residues 377–388) had been deleted (bacteriophage T4). In words: cryo-EM 2D classification of particles; oligomeric states counted in cryo-EM data of purified portals; gp20-N74 after a single gel filtration (narrow 500 μl fraction).
In data set [3] the target is bacteriophage T4 portal protein gp20, construct gp20-N74 (residues 74–524) (bacteriophage T4) (UniProt P13334). The data set is described as above.
Data set [4] has the same target. In words: cryo-EM structure; single particles of gp20-N74 after two gel filtrations, 1 mg/ml in 20 mM Tris-HCl pH 7.8, 400 mM NaCl, 5 mM EDTA, 0.3% octyl-β-glucoside; 12-fold symmetry imposed, 3.6 Å.
Data set [5] concerns the molecule itself. In words: cryo-EM structure; purified emptied prolate heads of a gp13 amber mutant in 50 mM Tris pH 7.5, 1 mM MgCl2, 100 mM NaCl; fivefold symmetry, 10 Å; gp20 structure and a gp23 model fitted into the map.

Take “bacteriophage T4 major capsid protein gp23 (natural protein)”: the stoichiometry N in data set [1] was 6.
In data set [2], “gp20 mutant in which the tunnel loop (residues 377–388) had been deleted (domain or fragment)” gave a percent of particles that are 11-mers of 28% and a percent of particles that are 13-mers of 4%.
Regarding “bacteriophage T4 portal protein gp20, construct gp20-N74 (residues 74–524) (from UniProt P13334 74-524) (domain or fragment)”, in data set [3], the percent of particles that are 11-mers was found to be 0.1%, the percent of particles that are 12-mers was 90% and the percent of particles that are 13-mers came to 9.9%. Moreover, in data set [4], the percent of particles that are 12-mers is 95%, the percent of particles that are 13-mers is 5% and the stoichiometry N was determined as 12.

B1: bacteriophage T4 vertex protein gp24 (natural protein, UniProt P19896 11-427, looked up)
chain: STTTNSNSIGRPNLVALTRATTKLIYSDIVATQRTNQPVAAFYGIKYLNPDNEFTFKTGATYAGEAGYVDREQITELTEESKLTLNKGDLFKYNNIVYKVLEDTPFATIEESDLELALQIAIVLLKVRLFSDAASTSKFESSDSEIADARFQINKWQTAVKSRKLKTGITVELAQDLEANGFDAPNFLEDLLATEMADEINKDILQSLITVSKRYKVTGITDSGFIDLSYASAPEAGRSLYRMVCEMVSHIQKESTYTATFCVASARAAAILAASGWLKHKPEDDKYLSQNAYGFLANGLPLYCDTNSPLDYVIVGVVENIGEKEIVGSIFYAPYTEGLDLDDPEHVGAFKVVVDPESLQPSIGLLVRYALSANPYTVAKDEKEARIIDGGDMDKMAGRSDLSVLLGVKLPKIIIDE
notes: capsid vertex protein gp24 of bacteriophage T4, as present in fully expanded heads; source: emptied prolate heads of a T4 gp13 amber mutant, purified
With B1, the “stoichiometry N” value in data set [5] worked out at 5.

These data come from publication PMC4493910, “Cryo-EM structure of the bacteriophage T4 portal protein assembly at near-atomic resolution” (Nature Communications, 2015).
